Substrate: NC(=O)c1ccc[n+]([C@@H]2O[C@H](COP(=O)(O)OP(=O)(O)OC[C@H]3O[C@@H](n4cnc5c(N)ncnc54)[C@H](O)[C@@H]3O)[C@@H](O)[C@H]2O)c1
Assay: mediated catalytic cyclic voltammetry
Type: biochemical, Cupriavidus necator
Conditions: methyl viologen 60 μM as electron donor, 50 mM phosphate pH 7.5, 25 °C, N2, FdsBG 0.34 μM, turnover number calculated from simulated rate constant and Km

B1: FdsBG (subcomplex of formate dehydrogenase FdsDABG) (Cupriavidus necator H16) (protein)
chain: MITITTIFVPRDSTALALGADDVARAIAREAAARNEHVRIVRNGSRGMFWLEPLVEVQTGAGRVAYGPVSAADVPGLFDAGLLQGGEHALSQGVTEEIPFLKQQERLTFARVGITDPLSLDDYRAHEGFAGLERALAMQPAEIVQEVTDSGLRGRGGAAFPTGIKWKTVLGAQSAVKYIVCNADEGDSGTFSDRMVMEDDPFMLIEGMTIAALAVGAEQGYIYCRSEYPHAIAVLESAIGIANAAGWLGDDIRGSGKRFHLEVRKGAGAYVCGEETALLESLEGRRGVVRAKPPLPALQGLFGKPTVINNVISLATVPVILARGAQYYRDYGMGRSRGTLPFQLAGNIKQGGLVEKAFGVTLRELLVDYGGGTRSGRAIRAVQVGGPLGAYLPESRFDVPLDYEAYAAFGGVVGHGGIVVFDETVDMAKQARYAMEFCAIESCGKCTPCRIGSTRGVEVMDRIIAGEQPVKHVALVRDLCDTMLNGSLCAMGGMTPYPVLSALNEFPEDFGLASNPAKAA
notes: FdsBG subcomplex without FdsA and FdsD; FdsB 55 kDa (FMN, [4Fe-4S]) and FdsG 19 kDa ([2Fe-2S]); 74 kDa in total; expressed and purified by a published procedure; with NAD-dependent formate dehydrogenase gamma subunit
  Km: 1.2(1) mM
  kcat: 2400 s⁻¹
